Experimental data taken from IntAct's records for PubMed 31515488.

B1: Keratin, type II cytoskeletal 6A (Homo sapiens), P02538 (parent)
chain: MASTSTTIRSHSSSRRGFSANSARLPGVSRSGFSSVSVSRSRGSGGLGGACGGAGFGSRSLYGLGGSKRISIGGGSCAISGGYGSRAGGSYGFGGAGSGFGFGGGAGIGFGLGGGAGLAGGFGGPGFPVCPPGGIQEVTVNQSLLTPLNLQIDPTIQRVRAEEREQIKTLNNKFASFIDKVRFLEQQNKVLETKWTLLQEQGTKTVRQNLEPLFEQYINNLRRQLDSIVGERGRLDSELRGMQDLVEDFKNKYEDEINKRTAAENEFVTLKKDVDAAYMNKVELQAKADTLTDEINFLRALYDAELSQMQTHISDTSVVLSMDNNRNLDLDSIIAEVKAQYEEIAQRSRAEAESWYQTKYEELQVTAGRHGDDLRNTKQEIAEINRMIQRLRSEIDHVKKQCANLQAAIADAEQRGEMALKDAKNKLEGLEDALQKAKQDLARLLKEYQELMNVKLALDVEIATYRKLLEGEECRLNGEGVGQVNISVVQSTVSSGYGGASGVGSGLGLGGGSSYSYGSGLGVGGGFSSSSGRAIGGGLSSVGGGSSTIKYTTTSSSSRKSYKH
B2: E3 ubiquitin-protein ligase LNX (Homo sapiens), Q8TBB1 (parent)
chain: MNQPESANDPEPLCAVCGQAHSLEENHFYSYPEEVDDDLICHICLQALLDPLDTPCGHTYCTLCLTNFLVEKDFCPMDRKPLVLQHCKKSSILVNKLLNKLLVTCPFREHCTQVLQRCDLEHHFQTSCKGASHYGLTKDRKRRSQDGCPDGCASLTATAPSPEVSAAATISLMTDEPGLDNPAYVSSAEDGQPAISPVDSGRSNRTRARPFERSTIRSRSFKKINRALSVLRRTKSGSAVANHADQGRENSENTTAPEVFPRLYHLIPDGEITSIKINRVDPSESLSIRLVGGSETPLVHIIIQHIYRDGVIARDGRLLPGDIILKVNGMDISNVPHNYAVRLLRQPCQVLWLTVMREQKFRSRNNGQAPDAYRPRDDSFHVILNKSSPEEQLGIKLVRKVDEPGVFIFNVLDGGVAYRHGQLEENDRVLAINGHDLRYGSPESAAHLIQASERRVHLVVSRQVRQRSPDIFQEAGWNSNGSWSPGPGERSNTPKPLHPTITCHEKVVNIQKDPGESLGMTVAGGASHREWDLPIYVISVEPGGVISRDGRIKTGDILLNVDGVELTEVSRSEAVALLKRTSSSIVLKALEVKEYEPQEDCSSPAALDSNHNMAPPSDWSPSWVMWLELPRCLYNCKDIVLRRNTAGSLGFCIVGGYEEYNGNKPFFIKSIVEGTPAYNDGRIRCGDILLAVNGRSTSGMIHACLARLLKELKGRITLTIVSWPGTFL
B3: Isoform 1 of Targeting protein for Xklp2 (Homo sapiens), Q9ULW0-1 (parent)
chain: MSQVKSSYSYDAPSDFINFSSLDDEGDTQNIDSWFEEKANLENKLLGKNGTGGLFQGKTPLRKANLQQAIVTPLKPVDNTYYKEAEKENLVEQSIPSNACSSLEVEAAISRKTPAQPQRRSLRLSAQKDLEQKEKHHVKMKAKRCATPVIIDEILPSKKMKVSNNKKKPEEEGSAHQDTAEKNASSPEKAKGRHTVPCMPPAKQKFLKSTEEQELEKSMKMQQEVVEMRKKNEEFKKLALAGIGQPVKKSVSQVTKSVDFHFRTDERIKQHPKNQEEYKEVNFTSELRKHPSSPARVTKGCTIVKPFNLSQGKKRTFDETVSTYVPLAQQVEDFHKRTPNRYHLRSKKDDINLLPSKSSVTKICRDPQTPVLQTKHRARAVTCKSTAELEAEELEKLQQYKFKARELDPRILEGGPILPKKPPVKPPTEPIGFDLEIEKRIQERESKKKTEDEHFEFHSRPCPTKILEDVVGVPEKKVLPITVPKSPAFALKNRIRMPTKEDEEEDEPVVIKAQPVPHYGVPFKPQIPEARTVEICPFSFDSRDKERQLQKEKKIKELQKGEVPKFKALPLPHFDTINLPEKKVKNVTQIEPFCLETDRRGALKAQTWKHQLEEELRQQKEAACFKARPNTVISQEPFVPKKEKKSVAEGLSGSLVQEPFQLATEKRAKERQELEKRMAEVEAQKAQQLEEARLQEEEQKKEELARLRRELVHKANPIRKYQGLEIKSSDQPLTVPVSPKFSTRFHC
partner: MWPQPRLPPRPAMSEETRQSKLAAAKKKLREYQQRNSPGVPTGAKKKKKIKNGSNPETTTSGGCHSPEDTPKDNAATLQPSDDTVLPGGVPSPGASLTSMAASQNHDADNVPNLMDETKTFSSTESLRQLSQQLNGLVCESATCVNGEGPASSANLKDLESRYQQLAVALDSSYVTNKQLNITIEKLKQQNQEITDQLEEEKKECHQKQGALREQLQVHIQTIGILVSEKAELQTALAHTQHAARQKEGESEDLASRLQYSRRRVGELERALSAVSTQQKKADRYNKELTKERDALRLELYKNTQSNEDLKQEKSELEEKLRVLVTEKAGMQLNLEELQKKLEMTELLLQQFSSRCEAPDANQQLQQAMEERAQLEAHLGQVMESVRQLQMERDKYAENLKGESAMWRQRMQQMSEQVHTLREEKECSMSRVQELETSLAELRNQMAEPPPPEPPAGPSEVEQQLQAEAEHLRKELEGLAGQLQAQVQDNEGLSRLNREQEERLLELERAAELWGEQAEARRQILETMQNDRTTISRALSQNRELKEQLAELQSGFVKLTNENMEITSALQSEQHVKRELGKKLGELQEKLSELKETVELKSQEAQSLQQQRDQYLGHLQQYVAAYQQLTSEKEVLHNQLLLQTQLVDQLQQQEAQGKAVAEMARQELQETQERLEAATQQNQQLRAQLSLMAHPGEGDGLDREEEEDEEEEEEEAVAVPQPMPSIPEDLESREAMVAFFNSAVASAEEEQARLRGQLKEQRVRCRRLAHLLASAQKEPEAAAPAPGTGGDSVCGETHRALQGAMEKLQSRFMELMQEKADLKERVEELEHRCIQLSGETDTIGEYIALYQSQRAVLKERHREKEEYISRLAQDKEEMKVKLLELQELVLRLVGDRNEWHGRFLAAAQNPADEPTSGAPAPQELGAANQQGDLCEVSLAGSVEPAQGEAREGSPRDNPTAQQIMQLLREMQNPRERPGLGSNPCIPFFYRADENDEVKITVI
B4: Melanoma-associated antigen 4 (Homo sapiens), P43358 (parent)
chain: MSSEQKSQHCKPEEGVEAQEEALGLVGAQAPTTEEQEAAVSSSSPLVPGTLEEVPAAESAGPPQSPQGASALPTTISFTCWRQPNEGSSSQEEEGPSTSPDAESLFREALSNKVDELAHFLLRKYRAKELVTKAEMLERVIKNYKRCFPVIFGKASESLKMIFGIDVKEVDPASNTYTLVTCLGLSYDGLLGNNQIFPKTGLLIIVLGTIAMEGDSASEEEIWEELGVMGVYDGREHTVYGEPRKLLTQDWVQENYLEYRQVPGSNPARYEFLWGPRALAETSYVKVLEHVVRVNARVRIAYPSLREAALLEEEEGV
partner: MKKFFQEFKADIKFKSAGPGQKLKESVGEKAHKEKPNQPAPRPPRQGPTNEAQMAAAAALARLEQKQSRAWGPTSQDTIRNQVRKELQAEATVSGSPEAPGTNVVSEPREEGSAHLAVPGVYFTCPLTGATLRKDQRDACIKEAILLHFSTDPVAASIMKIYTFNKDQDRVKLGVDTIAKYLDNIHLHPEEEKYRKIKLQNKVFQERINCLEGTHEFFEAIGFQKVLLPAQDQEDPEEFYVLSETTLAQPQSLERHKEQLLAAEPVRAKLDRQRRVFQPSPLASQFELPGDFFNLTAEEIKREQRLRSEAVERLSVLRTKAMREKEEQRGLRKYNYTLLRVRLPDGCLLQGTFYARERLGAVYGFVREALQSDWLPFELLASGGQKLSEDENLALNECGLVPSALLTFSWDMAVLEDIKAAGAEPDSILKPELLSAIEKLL
B5: G protein pathway suppressor 2 (Homo sapiens), Q13227 (parent)
chain: MPALLERPKLSNAMARALHRHIMMERERKRQEEEEVDKMMEQKMKEEQERRKKKEMEERMSLEETKEQILKLEEKLLALQEEKHQLFLQLKKVLHEEEKRRRKEQSDLTTLTSAAYQQSLTVHTGTHLLSMQGSPGGHNRPGTLMAADRAKQMFGPQVLTTRHYVGSAAAFAGTPEHGQFQGSPGGAYGTAQPPPHYGPTQPAYSPSQQLRAPSAFPAVQYLSQPQPQPYAVHGHFQPTQTGFLQPGGALSLQKQMEHANQQTGFSDSSSLRPMHPQALHPAPGLLASPQLPVQMQPAGKSGFAATSQPGPRLPFIQHSQNPRFYHK
partner: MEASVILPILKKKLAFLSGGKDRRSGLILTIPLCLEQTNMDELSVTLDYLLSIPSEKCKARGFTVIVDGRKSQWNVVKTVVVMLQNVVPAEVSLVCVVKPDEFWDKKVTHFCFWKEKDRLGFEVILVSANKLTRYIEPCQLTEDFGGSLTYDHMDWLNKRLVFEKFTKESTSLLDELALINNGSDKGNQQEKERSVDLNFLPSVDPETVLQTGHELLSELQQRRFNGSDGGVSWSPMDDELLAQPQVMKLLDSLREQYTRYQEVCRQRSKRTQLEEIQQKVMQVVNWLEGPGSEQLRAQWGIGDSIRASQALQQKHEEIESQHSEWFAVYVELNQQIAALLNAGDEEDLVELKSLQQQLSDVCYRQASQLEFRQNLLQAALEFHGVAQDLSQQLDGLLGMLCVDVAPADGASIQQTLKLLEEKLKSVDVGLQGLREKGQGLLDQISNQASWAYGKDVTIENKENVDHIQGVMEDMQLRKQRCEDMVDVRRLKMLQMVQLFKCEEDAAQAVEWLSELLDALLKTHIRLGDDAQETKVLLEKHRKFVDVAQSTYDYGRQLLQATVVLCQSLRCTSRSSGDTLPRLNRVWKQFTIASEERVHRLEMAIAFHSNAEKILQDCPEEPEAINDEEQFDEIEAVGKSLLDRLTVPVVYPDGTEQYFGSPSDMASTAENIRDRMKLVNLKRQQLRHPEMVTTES
B6: Pre-mRNA-splicing factor SPF27 (Homo sapiens), O75934 (parent)
chain: MAGTGLVAGEVVVDALPYFDQGYEAPGVREAAAALVEEETRRYRPTKNYLSYLTAPDYSAFETDIMRNEFERLAARQPIELLSMKRYELPAPSSGQKNDITAWQECVNNSMAQLEHQAVRIENLELMSQHGCNAWKVYNENLVHMIEHAQKELQKLRKHIQDLNWQRKNMQLTAGSKLREMESNWVSLVSKNYEIERTIVQLENEIYQIKQQHGEANKENIRQDF
partner: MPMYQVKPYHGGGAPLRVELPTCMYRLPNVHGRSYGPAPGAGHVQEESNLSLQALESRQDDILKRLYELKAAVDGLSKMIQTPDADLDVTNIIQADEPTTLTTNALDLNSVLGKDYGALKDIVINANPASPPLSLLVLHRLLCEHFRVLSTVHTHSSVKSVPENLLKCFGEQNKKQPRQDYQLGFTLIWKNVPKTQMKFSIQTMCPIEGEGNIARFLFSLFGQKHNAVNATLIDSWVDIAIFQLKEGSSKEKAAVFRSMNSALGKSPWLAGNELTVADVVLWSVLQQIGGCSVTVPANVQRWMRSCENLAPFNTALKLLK
B7: Katanin p60 ATPase-containing subunit A-like 1 (Homo sapiens), Q9BW62 (parent)
chain: MNLAEICDNAKKGREYALLGNYDSSMVYYQGVMQQIQRHCQSVRDPAIKGKWQQVRQELLEEYEQVKSIVSTLESFKIDKPPDFPVSCQDEPFRDPAVWPPPVPAEHRAPPQIRRPNREVRPLRKEMAGVGARGPVGRAHPISKSEKPSTSRDKDYRARGRDDKGRKNMQDGASDGEMPKFDGAGYDKDLVEALERDIVSRNPSIHWDDIADLEEAKKLLREAVVLPMWMPDFFKGIRRPWKGVLMVGPPGTGKTMLAKAVATECGTTFFNVSSSTLTSKYRGESEKLVRLLFEMARFYAPTTIFIDEIDSICSRRGTSDEHEASRRVKSELLIQMDGVGGALENDDPSKMVMVLAATNFPWDIDEALRRRLEKRIYIPLPTAKGRAELLKINLREVELDPDIQLEDIAEKIEGYSGADITNVCRDASLMAMRRRINGLSPEEIRALSKEELQMPVTKGDFELALKKIAKSVSAADLEKYEKWMVEFGSA
partner: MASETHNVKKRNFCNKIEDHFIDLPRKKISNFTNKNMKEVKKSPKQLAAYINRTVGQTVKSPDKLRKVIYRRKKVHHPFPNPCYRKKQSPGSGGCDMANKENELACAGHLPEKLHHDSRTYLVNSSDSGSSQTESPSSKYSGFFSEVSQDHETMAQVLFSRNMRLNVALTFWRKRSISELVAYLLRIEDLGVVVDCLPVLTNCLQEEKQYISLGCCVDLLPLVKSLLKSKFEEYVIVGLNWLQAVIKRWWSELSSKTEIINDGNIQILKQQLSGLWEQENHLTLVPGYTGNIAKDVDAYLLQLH

Variants of: B1
Details: with KRT17, Q04695
Chain of KRT17, Q04695 (Q04695 whole entry): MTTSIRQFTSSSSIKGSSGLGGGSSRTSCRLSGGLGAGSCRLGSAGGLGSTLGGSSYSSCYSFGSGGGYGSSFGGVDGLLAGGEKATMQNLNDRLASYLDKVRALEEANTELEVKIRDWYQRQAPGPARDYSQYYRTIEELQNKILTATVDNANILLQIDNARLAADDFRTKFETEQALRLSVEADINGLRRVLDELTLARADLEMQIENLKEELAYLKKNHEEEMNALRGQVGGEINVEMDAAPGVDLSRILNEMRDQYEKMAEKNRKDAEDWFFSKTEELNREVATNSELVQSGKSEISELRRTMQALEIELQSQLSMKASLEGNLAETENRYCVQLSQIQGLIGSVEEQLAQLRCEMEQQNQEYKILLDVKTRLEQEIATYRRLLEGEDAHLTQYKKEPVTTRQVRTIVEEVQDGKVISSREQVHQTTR

| effect of a mutation on the interaction | Variant |
| --- | --- |
| with no effect | V523F |

Variants of: B1
Details: with tfp11_human TFIP11, Q9UBB9
Chain of tfp11_human TFIP11, Q9UBB9 (Q9UBB9 whole entry): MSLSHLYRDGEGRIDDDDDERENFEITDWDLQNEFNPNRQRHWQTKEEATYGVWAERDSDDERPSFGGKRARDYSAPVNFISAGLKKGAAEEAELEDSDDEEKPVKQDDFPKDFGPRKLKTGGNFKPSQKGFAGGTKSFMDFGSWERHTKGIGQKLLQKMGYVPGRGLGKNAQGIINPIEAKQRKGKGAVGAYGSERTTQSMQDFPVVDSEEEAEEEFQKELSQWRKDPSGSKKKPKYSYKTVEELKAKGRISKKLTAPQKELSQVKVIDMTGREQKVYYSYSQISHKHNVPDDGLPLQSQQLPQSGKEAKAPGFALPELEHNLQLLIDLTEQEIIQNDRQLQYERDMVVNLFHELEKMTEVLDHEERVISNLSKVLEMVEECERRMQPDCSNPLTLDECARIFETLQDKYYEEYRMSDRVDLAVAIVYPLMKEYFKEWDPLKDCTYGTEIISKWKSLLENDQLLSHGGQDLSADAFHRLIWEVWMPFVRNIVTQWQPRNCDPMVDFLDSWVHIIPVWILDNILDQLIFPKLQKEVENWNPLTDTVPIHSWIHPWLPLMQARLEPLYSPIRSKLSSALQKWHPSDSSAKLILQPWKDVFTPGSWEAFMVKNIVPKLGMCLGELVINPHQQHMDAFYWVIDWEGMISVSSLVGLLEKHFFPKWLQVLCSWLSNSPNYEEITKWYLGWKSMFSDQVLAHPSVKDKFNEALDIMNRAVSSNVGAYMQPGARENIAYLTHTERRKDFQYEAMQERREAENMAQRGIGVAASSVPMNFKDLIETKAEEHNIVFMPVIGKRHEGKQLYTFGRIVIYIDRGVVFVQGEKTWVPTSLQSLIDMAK

| effect of a mutation on the interaction | Variant |
| --- | --- |
| with no effect | V523F |

Variants of: B1
Details: with KRT15, P19012
Chain of KRT15, P19012 (P19012 whole entry): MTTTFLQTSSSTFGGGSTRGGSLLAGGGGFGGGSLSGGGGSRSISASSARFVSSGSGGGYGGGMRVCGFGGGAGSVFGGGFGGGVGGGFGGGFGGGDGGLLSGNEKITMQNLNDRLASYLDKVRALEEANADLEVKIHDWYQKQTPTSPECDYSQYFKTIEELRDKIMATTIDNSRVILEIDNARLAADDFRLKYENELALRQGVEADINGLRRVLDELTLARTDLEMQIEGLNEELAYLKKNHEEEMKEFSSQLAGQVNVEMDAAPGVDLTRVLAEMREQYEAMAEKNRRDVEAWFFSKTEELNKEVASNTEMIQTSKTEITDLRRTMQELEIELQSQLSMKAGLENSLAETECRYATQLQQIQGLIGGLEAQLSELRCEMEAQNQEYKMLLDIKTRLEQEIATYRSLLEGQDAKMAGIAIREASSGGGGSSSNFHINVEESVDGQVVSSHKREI

| effect of a mutation on the interaction | Variant |
| --- | --- |
| with no effect | V523F |

Variants of: B2
Details: with tri23_human TRIM23, P36406
Chain of tri23_human TRIM23, P36406 (P36406 whole entry): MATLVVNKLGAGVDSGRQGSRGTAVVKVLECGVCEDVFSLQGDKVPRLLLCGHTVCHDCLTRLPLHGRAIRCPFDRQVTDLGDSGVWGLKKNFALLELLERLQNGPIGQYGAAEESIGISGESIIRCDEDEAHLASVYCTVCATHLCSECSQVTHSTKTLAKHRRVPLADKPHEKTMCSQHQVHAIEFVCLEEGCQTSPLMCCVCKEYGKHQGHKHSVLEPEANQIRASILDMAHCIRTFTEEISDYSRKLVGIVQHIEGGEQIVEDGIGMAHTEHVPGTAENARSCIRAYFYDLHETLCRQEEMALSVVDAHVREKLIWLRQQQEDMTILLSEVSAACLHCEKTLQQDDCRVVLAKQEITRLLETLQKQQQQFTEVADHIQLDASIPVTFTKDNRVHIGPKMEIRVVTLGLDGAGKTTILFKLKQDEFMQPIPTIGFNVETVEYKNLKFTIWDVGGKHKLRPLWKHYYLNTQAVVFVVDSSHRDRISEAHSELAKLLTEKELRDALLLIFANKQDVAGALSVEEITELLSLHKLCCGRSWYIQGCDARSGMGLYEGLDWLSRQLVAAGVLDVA

| effect of a mutation on the interaction | Variant |
| --- | --- |
| with no effect | R342H |

Variants of: B2
Details: with clk2_human CLK2, P49760
Chain of clk2_human CLK2, P49760 (P49760 whole entry, looked up): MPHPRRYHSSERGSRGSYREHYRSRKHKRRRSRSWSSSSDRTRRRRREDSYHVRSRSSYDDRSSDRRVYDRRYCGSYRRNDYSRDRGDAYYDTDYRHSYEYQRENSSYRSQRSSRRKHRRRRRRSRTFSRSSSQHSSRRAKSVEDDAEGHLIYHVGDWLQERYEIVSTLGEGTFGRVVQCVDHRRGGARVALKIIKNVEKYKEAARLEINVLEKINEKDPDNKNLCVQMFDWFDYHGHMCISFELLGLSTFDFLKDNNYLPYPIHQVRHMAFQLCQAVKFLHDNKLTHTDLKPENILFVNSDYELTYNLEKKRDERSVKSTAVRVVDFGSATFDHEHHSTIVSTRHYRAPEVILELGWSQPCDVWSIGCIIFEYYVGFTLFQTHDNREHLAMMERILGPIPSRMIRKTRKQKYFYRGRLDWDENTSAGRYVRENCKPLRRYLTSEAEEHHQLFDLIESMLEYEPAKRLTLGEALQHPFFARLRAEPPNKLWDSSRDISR

| effect of a mutation on the interaction | Variant |
| --- | --- |
| with no effect | R342H |

Variants of: B3
Details: with goga2_human GOLGA2, Q08379

| effect of a mutation on the interaction | Variant |
| --- | --- |
| with no effect | T464N |

Variants of: B4
Details: with ubxn6_human UBXN6, Q9BZV1

| effect of a mutation on the interaction | Variant |
| --- | --- |
| with no effect | S41F |

Variants of: B5
Details: with sesd1_human SESTD1, Q86VW0

| effect of a mutation on the interaction | Variant |
| --- | --- |
| with no effect | A215T |

Variants of: B6
Details: with aimp2_human AIMP2, Q13155

| effect of a mutation on the interaction | Variant |
| --- | --- |
| with no effect | N139S |

Variants of: B7
Details: with ktbl1_human KATNBL1, Q9H079

| effect of a mutation on the interaction | Variant |
| --- | --- |
| with no effect | V272I |
| with no effect | I142M |
